Key:
[1] = biological target: IgG-Fc of anti-TNFα monoclonal antibody (Remicade); assay: SPR Biacore, Fc immobilized at about 10000 RU, response 1 minute after addition
[2] = biological target: IgG-Fab prepared from anti-TNFα monoclonal antibody (Remicade); assay: SPR Biacore, Fab immobilized at about 10000 RU, response 1 minute after addition

inclination of approximate curve (binding response against peptide concentration) [1]: 0.9
inclination of approximate curve (binding response against peptide concentration) [2]: 0.1
Substance: peptide having the amino acid sequence of β1 domain of Protein G (SEQ ID NO: 32) (from UniProt P06654 228-282)

— US20180044401A1
